Positions of bridges follow the written chain, without caps; N, C: chain ends. No end group written: not given here.
biological target: T1, biotinylated Aβ42 (human, UniProt P05067 672-713, biotinylated (site not stated)); test: ELISA, peptide coated at 10 µg/ml, biotinylated Aβ42 in solution
T1 construct: domain: amyloid-beta peptide (Aβ42); Added in solution (PBS/1% BSA) to plates coated with the HCDR3-derived peptides; detected with avidin-peroxidase; also called Aβ42 (biotinylated)
T1 sequence (P05067 672-713 limits assumed): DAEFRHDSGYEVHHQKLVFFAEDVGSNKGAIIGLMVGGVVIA

Binder | binding result
ASVRGWYVRSVFDPA (HCDR3 of clone b4.4 with an alanine at each end, without cysteines; linear; also called linear N44; linear peptide N44) [HCDR3-derived synthetic peptide N44] | no binding
IWGCSGKLICTTAVP (bridge 4-10 (inferred); also: cyclic via two Cys, bond not described, Negative control) [non-related cyclic peptide GM15] | no binding
CADWRYRSVFGPVSVAC (disulfide 1-17 (inferred); not fully specified, Negative control; also called Scr44; cyclic peptide with scrambled amino acids) [scrambled cyclic peptide ScrC44] | no binding

Source: patent US20060024667A1 (PRIMEX CLINICAL LABORATORIES, published 2006)
